For two substances, fold decrease in binding and fold increase in binding results are on record in patent US20210403538A1.

In assay [1] the target is Jurkat-EBOV GPCL (Zaire ebolavirus (EBOV), Makona).
Assay [2] concerns the target Jurkat-EBOV GP (Zaire ebolavirus (EBOV), Makona).

Sequence of rEBOV-520 LALA (antibody) (VH): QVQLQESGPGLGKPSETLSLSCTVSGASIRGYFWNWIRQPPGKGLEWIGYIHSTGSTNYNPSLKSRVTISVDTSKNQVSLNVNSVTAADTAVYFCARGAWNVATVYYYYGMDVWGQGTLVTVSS
Sequence of rEBOV-520 LALA (antibody) (VL): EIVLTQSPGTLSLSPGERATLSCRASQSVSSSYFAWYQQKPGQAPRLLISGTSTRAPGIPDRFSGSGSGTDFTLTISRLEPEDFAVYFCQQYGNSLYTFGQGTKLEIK

On to MR72 (antibody), for which, in assay [1], the fold decrease in binding was determined as 2.8 fold.
As for rEBOV-520 LALA (antibody), in assay [2], the fold increase in binding is under 4.6 fold.
